The target of assay [1] is T1, cynomolgus monkey SIRPγ on CHO cells (cynomolgus monkey, UniProt Q9P1W8 29-386 (human entry)).
T1 construct: also called Cyno SIRPγ CHO
T1 chain: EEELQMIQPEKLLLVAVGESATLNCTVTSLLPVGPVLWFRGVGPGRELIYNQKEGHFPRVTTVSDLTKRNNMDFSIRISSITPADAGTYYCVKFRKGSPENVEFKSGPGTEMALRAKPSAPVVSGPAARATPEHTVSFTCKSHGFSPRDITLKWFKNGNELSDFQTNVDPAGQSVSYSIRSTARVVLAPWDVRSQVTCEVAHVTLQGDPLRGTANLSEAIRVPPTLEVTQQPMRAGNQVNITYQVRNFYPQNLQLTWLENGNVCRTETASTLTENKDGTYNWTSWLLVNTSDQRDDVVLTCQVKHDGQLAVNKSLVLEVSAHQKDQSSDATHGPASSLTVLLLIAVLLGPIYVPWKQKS
The assay is described as follows: flow cytometry, CHO transfectants, anti-human IgG. The essentials: (§1)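 Flow cytometry on stable CHO transfectants; antibody titration; fluorescent anti-human IgG detection; MFI per concentration. myc-tagged scFv: crude PPE on SIRP-expressing CHO and parental CHO-K1; fold change <2.0 = non-binder.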
For orientation: A flow cytometer gives signals particle by particle.

Assay [2] addresses T2, cynomolgus monkey SIRPα on CHO cells (cynomolgus monkey, UniProt A0A2K5VYQ9 31-507).
T2 construct: whole, on cells; also called Cyno SIRPα CHO
T2 sequence: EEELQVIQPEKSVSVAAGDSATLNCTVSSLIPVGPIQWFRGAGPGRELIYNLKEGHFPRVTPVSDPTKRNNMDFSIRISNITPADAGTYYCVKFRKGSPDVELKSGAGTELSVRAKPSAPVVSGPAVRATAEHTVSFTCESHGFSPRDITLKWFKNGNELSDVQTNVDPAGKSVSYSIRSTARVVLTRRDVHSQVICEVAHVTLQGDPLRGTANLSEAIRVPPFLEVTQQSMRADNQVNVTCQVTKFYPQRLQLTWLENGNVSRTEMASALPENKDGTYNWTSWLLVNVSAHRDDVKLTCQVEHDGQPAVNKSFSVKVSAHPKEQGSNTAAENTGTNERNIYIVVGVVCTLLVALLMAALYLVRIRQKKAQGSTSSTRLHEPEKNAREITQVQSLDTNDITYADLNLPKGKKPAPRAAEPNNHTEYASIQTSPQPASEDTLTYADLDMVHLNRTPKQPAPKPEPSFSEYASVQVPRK
Nature of the assay: flow cytometry, CHO transfectants, anti-human IgG. The essentials:
as §1

Assay [3] addresses T3, human SIRPβ1 on CHO cells (co-transfected with DAP12) (human, UniProt O00241 30-398).
T3 construct: whole, on cells; co-transfected with DAP12; also called Human SIRPβ1 CHO
Nature of the assay: flow cytometry, CHO transfectants, anti-human IgG. In short, it runs like this:
as §1

The target of assay [4] is T4, Cynomolgus Monkey SIRPγ (plate-coated extracellular domain).
T4 construct: also called Cyno SIRPγ
T4 extracellular domain: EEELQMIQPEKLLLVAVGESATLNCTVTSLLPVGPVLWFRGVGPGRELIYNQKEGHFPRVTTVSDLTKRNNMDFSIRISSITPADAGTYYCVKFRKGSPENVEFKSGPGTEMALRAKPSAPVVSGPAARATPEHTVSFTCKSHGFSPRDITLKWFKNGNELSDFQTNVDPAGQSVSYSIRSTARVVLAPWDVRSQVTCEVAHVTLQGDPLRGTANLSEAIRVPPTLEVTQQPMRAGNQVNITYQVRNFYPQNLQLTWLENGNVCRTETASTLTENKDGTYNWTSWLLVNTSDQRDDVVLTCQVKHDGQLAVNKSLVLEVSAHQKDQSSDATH
Nature of the assay: ELISA, coated SIRP ECD (2 µg/mL), anti-human IgG, luminescence. The essentials: (§2)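 Plate-coated SIRP extracellular domain (2 μg/mL), blocked, then exposed to purified antibodies in titration, after transient expression in Expi293F cells for 5 days and Protein A purification. Bound antibody is detected with anti-human IgG and a chemiluminescent substrate, and reported as relative luminescence units.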
(In an ELISA, binding on a coated surface is turned into a signal by an enzyme label.)

The target in assay [5] is T5, extracellular binding domain of human SIRPγ (plate-coated) (human, UniProt Q9P1W8 29-360).
T5 construct: also called hSIRPγ
The description is as above. In short, it runs like this:
as §2

Assay [6] deals with T6, human SIRPγ on stably transfected CHO cells (human, UniProt Q9P1W8 29-387).
T6 construct: also called Human SIRPγ CHO
The assay is described as follows: flow cytometry, CHO transfectants, anti-human IgG. The essentials:
as §1

Assay [7] has as its target T7, human SIRPγ-His monomer protein (human, UniProt Q9P1W8 29-360).
T7 construct: also called hSIRPγ
Nature of the assay: BLI Octet, antibody on AHC, global 1:2 model. As to the method: (§3) Antibodies were coated onto anti-human Fc capture (AHC) biosensors. SIRP-His monomer protein or bivalent SIRP protein with mouse Fc at four concentrations (200 nM, 100 nM, 50 nM, 25 nM) were exposed to the biosensor to measure on-rate kinetics of SIRP antibodies binding to SIRP protein. The biosensors were then exposed to wash buffer to measure off-rate kinetics. The resulting kinetic data were analyzed and fitted using a global 1:2 binding model.
(In BLI a coated tip is dipped into the sample, and binding shifts an interference pattern.)

In assay [8] the target is T8, cynomolgus monkey SIRPγ-His monomer protein (cynomolgus monkey, UniProt Q9P1W8 29-359 (human entry), limits assumed).
T8 construct: also called Cyno SIRPγ; Cyno SIRPγ-His
T8 chain: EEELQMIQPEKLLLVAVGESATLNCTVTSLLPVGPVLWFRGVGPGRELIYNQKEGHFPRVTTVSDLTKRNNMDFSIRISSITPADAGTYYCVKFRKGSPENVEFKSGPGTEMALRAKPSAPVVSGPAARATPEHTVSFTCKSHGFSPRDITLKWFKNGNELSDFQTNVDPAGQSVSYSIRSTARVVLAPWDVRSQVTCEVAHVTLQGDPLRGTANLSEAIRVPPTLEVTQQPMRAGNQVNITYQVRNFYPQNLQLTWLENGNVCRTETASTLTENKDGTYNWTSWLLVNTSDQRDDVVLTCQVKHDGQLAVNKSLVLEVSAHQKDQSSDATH
The assay is described as follows: BLI Octet, antibody on AHC, global 1:2 model. As to the method: as §3

In assay [9] the target is T9, bivalent human SIRPγ protein with mouse Fc (human, UniProt Q9P1W8 29-360).
T9 construct: also called Human SIRPγ-mFc
The assay is described as follows: BLI Octet, antibody on AHC, global 1:2 model. As to the method:
as §3

The record followed here is patent publication US20240400677A1 (ELECTRA THERAPEUTICS, published 2024).

T3 sequence (O00241 30-398): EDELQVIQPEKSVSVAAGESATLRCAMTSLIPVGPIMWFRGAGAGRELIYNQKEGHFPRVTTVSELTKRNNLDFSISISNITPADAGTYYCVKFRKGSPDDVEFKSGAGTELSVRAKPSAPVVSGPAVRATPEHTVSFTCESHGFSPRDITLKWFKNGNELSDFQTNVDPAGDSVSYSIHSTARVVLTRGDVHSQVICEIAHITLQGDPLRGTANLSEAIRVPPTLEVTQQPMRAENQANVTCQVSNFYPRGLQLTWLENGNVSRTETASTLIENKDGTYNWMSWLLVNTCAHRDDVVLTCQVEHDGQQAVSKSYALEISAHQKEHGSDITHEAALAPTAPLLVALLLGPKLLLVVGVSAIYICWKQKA
T6 sequence (Q9P1W8 29-387 limits assumed): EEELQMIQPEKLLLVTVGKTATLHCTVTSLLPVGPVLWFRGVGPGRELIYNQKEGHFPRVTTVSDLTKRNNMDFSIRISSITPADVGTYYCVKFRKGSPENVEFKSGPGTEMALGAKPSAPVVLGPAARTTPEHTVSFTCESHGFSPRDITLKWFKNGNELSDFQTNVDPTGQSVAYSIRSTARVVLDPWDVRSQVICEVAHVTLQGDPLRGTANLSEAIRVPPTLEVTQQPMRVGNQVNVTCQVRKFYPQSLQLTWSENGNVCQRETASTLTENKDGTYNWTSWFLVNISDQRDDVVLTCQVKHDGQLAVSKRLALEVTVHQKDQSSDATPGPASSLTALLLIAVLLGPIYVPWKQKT
T5 sequence (Q9P1W8 29-360 limits assumed): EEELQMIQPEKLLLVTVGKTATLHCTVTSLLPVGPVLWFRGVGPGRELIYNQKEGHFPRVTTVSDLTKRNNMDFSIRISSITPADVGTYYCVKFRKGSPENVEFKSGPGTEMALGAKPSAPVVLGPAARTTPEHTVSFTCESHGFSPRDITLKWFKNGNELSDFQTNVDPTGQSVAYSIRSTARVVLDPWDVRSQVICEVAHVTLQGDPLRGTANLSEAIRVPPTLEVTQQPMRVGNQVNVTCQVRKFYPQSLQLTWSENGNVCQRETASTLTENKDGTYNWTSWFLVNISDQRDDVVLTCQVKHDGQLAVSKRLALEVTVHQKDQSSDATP
T7 sequence (Q9P1W8 29-360 limits assumed): as above
T9 sequence (Q9P1W8 29-360 limits assumed): as above

B1: Antibody 79 (antibody, V domains shown)
VH: QVQLVQSGAEVKKPGASVKVSCKASGYTFTSYYMHWVRQAPGQGLEWMGWMNPNSGNTGYAQKFQGRVTMTRDTSTSTVYMELSSLRSEDTAVYYCARDQMYSSYGMDVWGQGTTVTVSS
VL: DIQMTQSPSSLSASVGDRVTITCRASESITNWLAWYQQKPGKAPKLLIYKASSLESGVPSRFSGSGSGTDFTLTISSLQPEDFATYYCQQSYGTPYTFGQGTKVEIK
Broadly, the EC50 (read off the curve) is the midpoint of the concentration-response curve. On to B1, for which the “EC50 (read off the curve)” value in assay [1] is about 0.5 µg/mL; in assay [4] it was about 0.06 µg/mL; in [5], about 0.03 µg/mL. For the same molecule, the binding result in assay [2] and in [3] was “no binding (tested: about 20 µg/mL)” each time.

B2: Antibody 69 (antibody, V domains shown)
VH: QVQLVQSGAEVKKPGASVKVSCKASGYTFTSYYMHWVRQAPGQGLEWMGWMNPNSDNTGYAQKFQGRVTMTRDTSTSTVYMELSSLRSEDTAVYYCARVGVGYGYYYYGMDVWGQGTTVTVSS
VL: DIQMTQSPSSLSASVGDRVTITCRAGQSIGDYLNWYQQKPGKAPKLLIYAASSLQSGVPSRFSGSGSGTDFTLTISSLQPEDFATYYCQQSYSTPWTFGQGTKVEIK
Consider B2, for which the “EC50 (read off the curve)” value in assay [1] is about 0.6 µg/mL; in assay [6] it was about 0.5 µg/mL. Moreover, the binding result in [2] and in assay [3] was “no binding (tested: about 20 µg/mL)” in each case.

B3: Antibody 89 (antibody, V domains shown)
VH: QVQLVQSGAEVKKPGASVKVSCKASGGTFSSYAISWVRQAPGQGLEWMGIINPSSSSTGYAQKFQGRVTMTRDTSTSTVYMELSSLRSEDTAVYYCARAGYYDSSGYYYSPYYGMDVWGQGTTVTVSS
VL: EIVMTQSPATLSVSPGERATLSCRASQSISGSYLAWYQQKPGQAPRLLIYGASTRATGIPARFSGSGSGTEFTLTISSLQSEDFAVYYCQQYGSFPFTFGPGTKVDIK
As to B3, the Kd in assay [7] was found to be 297 nM; in assay [8], 26.2 nM; in [9] it was 1320 nM. Moreover, the binding result in [2] and in [3] was “no binding (tested: about 30 µg/mL)” in each case. Further, the entries for the “EC50 (read off the curve)” value in assay [4] and in [5] were about 0.2 µg/mL and about 0.3 µg/mL, respectively.

B4: Antibody 57 (antibody, V domains shown)
VH: QVQLVQSGAEVKKPGASVKVSCKASGYTFTSYYMHWVRQAPGQGLEWMGWINPNSGNAGFAQKFQGRVTMTRDTSTSTVYMELSSLRSEDTAVYYCARGPVYSYGPFDYWGQGTLVTVSS
VL: DIQMTQSPSSLSASVGDRVTITCRASQGISTYLAWYQQKPGKAPKLLIYAASTLQSGVPSRFSGSGSGTDFTLTISSLQPEDFATYYCQQSHSAPITFGQGTKVEIK
B4: the “EC50 (read off the curve)” value is about 0.4 µg/mL in assay [1] and about 0.6 µg/mL in [6]. The binding result in [2] and in [3] was “no binding (tested: about 20 µg/mL)” in each case.

B5: Antibody 60 (antibody, V domains shown)
VH: EVQLLESGGGLVQPGGSLRLSCAASGFTLGSYWMHWVRQAPGKGLEWVSLISWDGGSTYYADSVKGRFTISRDNSKNTLYLQMNSLRAEDTAVYYCAKGPWVGYSGYDLNYYYYGMDVWGQGTTVTVSS
VL: DIQMTQSPSSLSASVGDRVTITCRASQDIRRALAWYQQKPGKAPKLLIYAASSLQSGVPSRFSGSGSGTDFTLTISSLQPEDFATYYCLQHNSYPPTFGQGTKLEIK
B5: the “EC50 (read off the curve)” value in assay [1] is about 0.7 µg/mL; in assay [6], about 0.9 µg/mL; in assay [4], about 0.03 µg/mL; in assay [5] it was about 0.02 µg/mL. Besides, the binding result in [2] and in assay [3] was “no binding (tested: about 20 µg/mL)” in each case.

B6: Antibody 80 (antibody, V domains shown)
VH: QVQLVQSGAEVKKPGASVKVSCKASGYTFTRYDINWVRQAPGQGLEWMGWMNPNSGNTGYAQKLQGRVTMTRDTSTSTVYMELSSLRSEDTAVYYCARERVGYCSSTSCLHPLDYWGQGTLVTVSS
VL: DIQMTQSPSSLSASVGDRVTITCRASQGIRNDLGWYQQKPGKAPKLLIYSASNLQSGVPSRFSGSGSGTDFTLTISSLQPEDFATYYCQQSYDVPLTFGGGTKVEIK
In the case of B6, the “EC50 (read off the curve)” value was about 0.7 µg/mL in assay [1], about 0.2 µg/mL in assay [6], about 0.05 µg/mL in [4] and about 0.02 µg/mL in assay [5]. For the same molecule, the binding result in [2] and in assay [3] was “no binding (tested: about 20 µg/mL)” in each case.

B7: Antibody 96 (antibody, V domains shown)
VH: QVQLVQSGAEVKKPGASVKVSCKASGYTFTRYDINWVRQAPGQGLEWMGWMNPNSGNTGYAQKLQGRVTMTRDTSTSTVYMELSSLRSEDTAVYYCARERVGYCSSTSCLHPLDYWGQGTLVTVSS
VL: DIQMTQSPSSLSASVGDRVTITCRASQGIRNDLGWYQQKPGKAPKLLIYSASNLQSGVPSRFSGSGSGTDFTLTISSLQPEDFATYYCQQSYDVPLTFGGGTKVEIK
For B7, the values for the Kd in assay [7], in assay [8] and in [9] were 70.3 nM, 211 nM and 21.5 nM, respectively. Moreover, the “EC50 (read off the curve)” value was about 0.6 µg/mL in assay [1] and about 0.4 µg/mL in assay [6]. The binding result in assay [2] and in assay [3] was “no binding (tested: about 30 µg/mL)” in each case.

B8: Antibody 82 (antibody, V domains shown)
VH: QVQLVQSGAEVKKPGASVKVSCKASGHTFNNNYIHWVRQAPGQGLEWMGIINPSGGSTSYAQKFQGRVTMTRDTSTSTVYMELSSLRSEDTAVYYCARQIQDYGYYYYGMDVWGQGTTVTVSS
VL: EIVMTQSPATLSVSPGERATLSCRASQSVSKYLAWYQQKPGQAPRLLIYAISARAAGIPARFSGSGSGTEFTLTISSLQSEDFAVYYCQQYYSSPPTFGQGTKVEIK
On to B8, for which the “EC50 (read off the curve)” value in assay [1] was about 0.7 µg/mL; in assay [4], about 0.03 µg/mL; in [5], about 0.01 µg/mL. The binding result in assay [2] and in [3] was “no binding (tested: about 20 µg/mL)” each time.
